The target of assay [1] is anti-Her2-FLAG switch. In words: ELISA, absorbance at 375nm, of anti-FLAG antibody 5B3 on the anti-Her2-FLAG switch; the text gives the same value as an apparent affinity of 2.2×10^-10 M.
The target of assay [2] is T1, anti-GCN4 (52SR4 scFv) sCAR with CD8 hinge.
T1 construct: 273 is the protein without leader; also called sCAR (long); CD8 sCAR
The assay can be described thus: flow cytometry on sCAR-T cells.

Assay [3] deals with T1, anti-GCN4 (52SR4 scFv) sCAR with CD8 …. The assay can be described thus: flow cytometry on CD8 sCAR-T cells, switch 30 min at 4 C, detected with PE-conjugated goat anti-human kappa chain antibody, MFI.
Text: Cells were washed two times and analyzed using the Accuri flow cytometer (BD).

B1: anti-FLAG monoclonal antibody (clone: 5B3) (antibody, V domains shown)
VH: EVQLQQSGAELVKPGASVKLSCTASGFNIKDYYMHWVKQRTEQGLEWIGRIDPEDGETKYAPKFQGKATITADTSSKTAYLQLSSLTSEDTAVYYCARLKGGYWGQGTTLTVSS
VL: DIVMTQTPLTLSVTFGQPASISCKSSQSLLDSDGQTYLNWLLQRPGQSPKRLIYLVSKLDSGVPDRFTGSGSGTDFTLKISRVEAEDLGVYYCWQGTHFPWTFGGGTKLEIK
notes: Mouse hybridoma antibody
For the molecule B1, the EC50 in assay [1] was determined as 0.22 nM.

B2: anti-CD19 (FMC63) IgG LCC1 switch (antibody)
light: DIQMTQTTSSLSASLGDRVTISCRASQDISKYLNWYQQKPDGTVKLLIYHTSRLHSGVPSRFSGSGSGTDYSLTISNLEQEDIATYFCQQGNTLPYTFGGGTKLEIKRTVAAPSVFIFPPSDEQLKSGTASVVCLLNNFYPREAKVQWKVDNALQSGNSQESVTEQDSGGGGSNYHLENEVARLKKLGGGGSDSTYSLSSTLTLSKADYEKHKVYACEVTHQGLSSPVTKSFNRGEC
heavy: EVKLQESGPGLVAPSQSLSVTCTVSGVSLPDYGVSWIRQPPRKGLEWLGVIWGSETTYYNSALKSRLTIIKDNSKSQVFLKMNSLQTDDTAIYYCAKHYYYGGSYAMDYWGQGTSVTVSSASTKGPSVFPLAPSSKSTSGGTAALGCLVKDYFPEPVTVSWNSGALTSGVHTFPAVLQSSGLYSLSSVVTVPSSSLGTQTYICNVNHKPSNTKVDKKVEPKSCDKTHTCPPCPAPPVAGPSVFLFPPKPKDTLMISRTPEVTCVVVDVSHEDPEVKFNWYVDGVEVHNAKTKPREEQYNSTYRVVSVLTVLHQDWLNGKEYKCKVSNKGLPSSIEKTISKAKGQPREPQVYTLPPSRDELTKNQVSLTCLVKGFYPSDIAVEWESNGQPENNYKTTPPVLDSDGSFFLYSKLTVDKSRWQQGNVFSCSVMHEALHNHYTQKSLSLSPGK
notes: also called LCC1 IgG; IgG (FcNull) switch
With B2, the binding result in assay [2] is given as “binds”.

B3: anti-CD19 (FMC63) Fab LCNT switch (Fab, V domains shown)
VH: EVKLQESGPGLVAPSQSLSVTCTVSGVSLPDYGVSWIRQPPRKGLEWLGVIWGSETTYYNSALKSRLTIIKDNSKSQVFLKMNSLQTDDTAIYYCAKHYYYGGSYAMDYWGQGTSVTVSS
VL: DIQMTQTTSSLSASLGDRVTISCRASQDISKYLNWYQQKPDGTVKLLIYHTSRLHSGVPSRFSGSGSGTDYSLTISNLEQEDIATYFCQQGNTLPYTFGGGTKLEIKR
notes: also called LCNT Fab
Turning to B3, the “EC50 (read off the curve)” value in assay [3] is about 2 nM.

These data come from US20190169289A1 (Scripps Research, published 2019).
